Test [1] deals with T1, Apple (Mal d 1, MyBiosource, Cat #MBS1224919) (Apple, UniProt P43211 2-159, limits assumed).
T1 construct: Bought reagent
T1 sequence (looked up): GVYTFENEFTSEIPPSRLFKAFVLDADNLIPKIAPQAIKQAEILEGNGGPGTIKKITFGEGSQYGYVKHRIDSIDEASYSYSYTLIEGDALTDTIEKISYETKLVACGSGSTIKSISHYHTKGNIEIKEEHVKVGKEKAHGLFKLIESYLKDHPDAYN
Nature of the test: SPR Biacore, 25C. (SPR reads the build-up and loss of mass on a sensor chip optically.)

The target in test [2] is T2, Celery (Api g 1, MyBiosource, Cat #MBS1171376) (Celery, UniProt P49372 1-154, limits assumed).
T2 construct: Bought reagent
T2 sequence (looked up): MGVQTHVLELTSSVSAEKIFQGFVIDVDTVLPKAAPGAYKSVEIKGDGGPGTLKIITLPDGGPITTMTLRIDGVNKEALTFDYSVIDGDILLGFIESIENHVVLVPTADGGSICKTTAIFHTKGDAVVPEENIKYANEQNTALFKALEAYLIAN
Nature of the test: SPR Biacore, 25C.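 Note: binding of related allergens to purified monoclonal anti-Bet v 1 antibodies by surface plasmon resonance in HEPES-buffered saline pH 7.4, kinetics fitted to a 1:1 model with mass transport.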

Test [3] concerns the target T3, European Hornbeam (Car b 1 isoform 1A & 1B, MyBiosource, Cat #MBS1200018) (European Hornbeam, UniProt P38949 2-160).
T3 construct: Bought reagent
T3 sequence (looked up): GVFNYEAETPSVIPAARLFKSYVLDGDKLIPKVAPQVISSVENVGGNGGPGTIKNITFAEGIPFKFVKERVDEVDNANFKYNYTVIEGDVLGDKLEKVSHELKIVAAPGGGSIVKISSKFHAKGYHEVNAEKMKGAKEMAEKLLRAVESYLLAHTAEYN
Nature of the test: SPR Biacore, 25C.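 Note: binding of related allergens to purified monoclonal anti-Bet v 1 antibodies by surface plasmon resonance in HEPES-buffered saline pH 7.4, kinetics fitted to a 1:1 model with mass transport.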

For test [4], the target named is T4, European Hornbeam (Car b 1 isoform 2, MyBiosource, Cat #MBS1043940) (European Hornbeam, UniProt P38950 2-160, limits assumed).
T4 construct: Bought reagent
T4 sequence (looked up): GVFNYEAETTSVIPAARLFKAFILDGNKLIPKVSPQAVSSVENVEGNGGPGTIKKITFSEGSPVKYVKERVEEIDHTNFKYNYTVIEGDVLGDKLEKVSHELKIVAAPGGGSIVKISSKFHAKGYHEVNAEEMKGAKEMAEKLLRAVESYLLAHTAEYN
Nature of the test: SPR Biacore, 25C.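 Note: binding of related allergens to purified monoclonal anti-Bet v 1 antibodies by surface plasmon resonance in HEPES-buffered saline pH 7.4, kinetics fitted to a 1:1 model with mass transport.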

The target of test [5] is T5, natural Bet v 1 (Indoor, Cat #NA-BV1-1) (Betula verrucosa (European white birch, …, UniProt P15494 2-160)).
T5 construct: Bought natural protein purified from birch pollen; also called nBet v 1
T5 sequence: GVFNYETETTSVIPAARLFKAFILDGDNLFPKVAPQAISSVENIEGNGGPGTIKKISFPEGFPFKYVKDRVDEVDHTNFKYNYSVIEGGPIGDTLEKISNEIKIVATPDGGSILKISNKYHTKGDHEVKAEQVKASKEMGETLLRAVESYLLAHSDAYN
Nature of the test: SPR Biacore, mAb captured on anti-hFc, 25C.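 Note: rate constants from sensorgrams fitted to a 1:1 model with mass transport limitation, KD and t½ derived from kinetic constants, run in HBS-ET buffer at pH 7.4.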

Test [6] has as its target T5, natural Bet v 1 (Indoor, Cat #NA-BV1-1). Nature of the test: SPR Biacore, mAb captured on anti-hFc, 37C.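 Note: purified anti-Bet v 1 monoclonal antibodies, HBS-ET running buffer pH 7.4, rate constants from 1:1 model fit with mass transport limitation, KD and t½ calculated from kinetic constants.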
Test [7] deals with T6, Alder (Aln g 1, MyBiosource, Cat #MBS1041484) (Alder, UniProt P38948 2-160, limits assumed).
T6 construct: Bought reagent
T6 sequence (looked up): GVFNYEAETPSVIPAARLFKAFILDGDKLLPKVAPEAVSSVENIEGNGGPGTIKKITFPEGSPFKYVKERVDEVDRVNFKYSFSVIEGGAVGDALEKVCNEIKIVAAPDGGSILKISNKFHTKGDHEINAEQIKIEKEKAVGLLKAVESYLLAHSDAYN
Nature of the test: SPR Biacore, 25C.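 Note: binding of related allergens to purified monoclonal anti-Bet v 1 antibodies by surface plasmon resonance in HEPES-buffered saline pH 7.4, kinetics fitted to a 1:1 model with mass transport.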

These results are taken from patent publication US20240083986A1 (published 2024).

B1: H4H16950P (antibody, human IgG4, V domains shown)
VH: QVQLVQSGAEVKKPGASVKVSCKTSGYTFTNYGITWVRQAPGQGLEWMGWISAYNGNTNYAQNVQGRVTMTTDTSTSTAYMEVRSLRSDDTAVYYCARRSSMLHFQHWGQGTLVTVSS
VL: DIVMTQSPDSLAVSLGERATINCKSSQHVLYDSSNENYLAWFQQKPGQPPKLLIYWASTRESGVPDRFSGSGSGTDFTLTISSLQAEDVAVYYCQQYSSAPYTFGQGTKLEIK
Usually Kd stands for the free concentration of one partner at which half of the binding sites on the other are occupied at equilibrium, for simple one-to-one binding. A high value points to lower affinity. In general, koff refers to the rate constant with which the complex falls apart. A high value points to fast dissociation. As a reminder, the kon is a measure of how fast the partners come together. What is called t½ is the time needed for the level to fall by half in the phase considered. On to B1, for which the binding result in test [1] was “no binding (tested: 100 nM)”. For the same molecule, the binding result in test [2] is “no binding (tested: 100 nM)”. In test [3], the binding result is on record as “no binding (tested: 100 nM)”. In addition, the binding result in test [4] is listed as “no binding (tested: 100 nM)”. In test [5], the “100 nM natural Bet v 1 Bound (RU)” value came to 58 RU, binding was put at a Kd of 5.23 nM, the koff was 0.000503 s⁻¹ and the kon is 96100 M⁻¹ s⁻¹. Further, the t½ in test [5] was found to be 23 min. In test [6], the “100 nM natural Bet v 1 Bound (RU)” value was found to be 76 RU; the affinity, expressed as Kd, was 8.57 nM; the koff is 0.00121 s⁻¹; the kon worked out at 141000 M⁻¹ s⁻¹. For the same molecule, the t½ in test [6] is 10 min.

B2: H4H16960P (antibody, human IgG4, V domains shown)
VH: QLQLQESGPGLVRPSETLSLTCTVSGGSISSSNYWWGWIRQPPGKGLEWIGSIYYSGITYYNPSLKSRVTISADTSKDQFSLKLRSVTAADTAVYYCAKLEWLRLDFWGQGTTVTVSS
VL: DIQMTQSPSSVSASVGDRVTITCRASQGISSWLVWYQQKPGKVPKLLIYAASSLQSGVPLRFSGSGSGTDFTLTISSLQPEDFATYYCQQAKSFPLTFGQGTRLEIK
For B2, the binding result in test [1] is reported as “no binding (tested: 100 nM)”. In test [2], the binding result is given as “no binding (tested: 100 nM)”. In addition, the binding result in test [3] is “no binding (tested: 100 nM)”. Also, in test [4], the binding result was “no binding (tested: 100 nM)”. Moreover, in test [5], the “100 nM natural Bet v 1 Bound (RU)” value was found to be 57 RU, the dissociation constant (Kd) worked out at 1.64 nM, the koff was found to be 0.00069 s⁻¹ and the kon came to 422000 M⁻¹ s⁻¹. Also, in test [5], the t½ came out at 17 min. Also, in test [6], the “100 nM natural Bet v 1 Bound (RU)” value turned out to be 65 RU, binding was put at a Kd of 2.54 nM, the koff came to 0.00168 s⁻¹ and the kon was determined as 662000 M⁻¹ s⁻¹. In test [6], this molecule registered a t½ of 6.8 min.

B3: H4H16991P (antibody, human IgG4, V domains shown)
VH: QVQLVQSGAEVRKPGASVKVSCKASGYTFTGYYLHWVRQAPGQGLEWMGLINPNTGGTNFAQKFQGRVTMTRDSSISAAYMELSRLRSDDTAVYYCARQHWNRYFDNWGQGTLVTVSS
VL: DIQMTQSPSTLSASVGDRVTITCRASQSVGNWLAWYQQKPGKAPKLLIQEASSIESGVPSRFSGSGSGTEFTLIVSSLQPDDFATYYCQQYNSYSWTFGHGTKVEIK
In the case of B3, the binding result in test [7] is “no binding (tested: 100 nM)”. The binding result in test [1] is “no binding (tested: 100 nM)”. In test [2], the binding result is on record as “no binding (tested: 100 nM)”. Besides, the binding result in test [3] was “no binding (tested: 100 nM)”. In addition, in test [5], the “100 nM natural Bet v 1 Bound (RU)” value stood at 57 RU, binding was characterised by a dissociation constant (Kd) of 1.06 nM, the koff came to 0.000312 s⁻¹ and the kon was 295000 M⁻¹ s⁻¹. In test [5], this molecule registered a t½ of 37 min. In test [6], the “100 nM natural Bet v 1 Bound (RU)” value amounted to 66 RU, the Kd worked out at 2.16 nM, the koff is 0.00108 s⁻¹ and the kon worked out at 500000 M⁻¹ s⁻¹. In addition, in test [6], the t½ worked out at 11 min.
